According to ChEMBL document CHEMBL6074635, “Replacement of the essential nitro group by electrophilic warheads towards nitro-free antimycobacterial benzothiazinones” (Eur J Med Chem, 2024):

Experiments:
[1] = substrate: CC(C)=CCC/C(C)=C/CC/C(C)=C/COP(=O)(O)O[C@@H]1O[C@H](CO)[C@@H](O)[C@H]1O; assay: (§1) Substrate activity at recombinant Mycobacterium tuberculosis DprE1 extracted from Escherichia coli BL21(DE3) assessed as Km incubated for 60 mins by resazurin dye based fluorescence plate reader analysis
[2] = substrate: CC(C)=CCC/C(C)=C/CC/C(C)=C/CC/C(C)=C/COP(=O)(O)OC1O[C@H](CO)[C@@H](O)[C@H]1O; assay: as §1

B1: Decaprenylphosphoryl-beta-D-ribose oxidase (Mycobacterium tuberculosis (strain ATCC 25618 / H37Rv)), P9WJF1 (protein)
chain: MLSVGATTTATRLTGWGRTAPSVANVLRTPDAEMIVKAVARVAESGGGRGAIARGLGRSYGDNAQNGGGLVIDMTPLNTIHSIDADTKLVDIDAGVNLDQLMKAALPFGLWVPVLPGTRQVTVGGAIACDIHGKNHHSAGSFGNHVRSMDLLTADGEIRHLTPTGEDAELFWATVGGNGLTGIIMRATIEMTPTSTAYFIADGDVTASLDETIALHSDGSEARYTYSSAWFDAISAPPKLGRAAVSRGRLATVEQLPAKLRSEPLKFDAPQLLTLPDVFPNGLANKYTFGPIGELWYRKSGTYRGKVQNLTQFYHPLDMFGEWNRAYGPAGFLQYQFVIPTEAVDEFKKIIGVIQASGHYSFLNVFKLFGPRNQAPLSFPIPGWNICVDFPIKDGLGKFVSELDRRVLEFGGRLYTAKDSRTTAETFHAMYPRVDEWISVRRKVDPLRVFASDMARRLELL
- Km [1]: 740 µM
- Km [2]: 33 µM
